Holding throughout (experiment): binding, other
The target of assay [1] is T1, HOXB13 peptide on HLA (human).
T1 peptide: SLSERQITI

The target of assay [2] is T2, HTR3A peptide on HLA (human).
T2 peptide: SLAETIFIV

Assay [3] has as its target T3, HOXB13 peptide on HLA (human).
T3 peptide: YLDVSVVQT

The target in assay [4] is T4, KLK3 peptide on HLA (human).
T4 peptide: KVMDLPTQEPAL

Assay [5] addresses T5, DCAF4L2 peptide on HLA (human).
T5 peptide: ILQDGQFLV

Assay [6] addresses T6, HTR3A peptide on HLA (human).
T6 peptide: AILNVDEKNQV

Assay [7] has as its target T7, KLK4 peptide on HLA (human).
T7 peptide: KLYDPLYHPSM

We go through 20 molecules from US20230346885A1 (published 2023).

B1: TCR of SEQ ID NOs 367 and 368 (TCR, V domains shown)
Valpha: KQEVTQIPAALSVPEGENLVLNCSFTDSAIYNLQWFRQDPGKGLTSLLLIQSSQREQTSGRLNASLDKSSGRSTLYIAASQPGDSATYLCAVRPHGQNFVFGPGTRLSVLP
Vbeta: NAGVTQTPKFRVLKTGQSMTLLCAQDMNHEYMYWYRQDPGMGLRLIHYSVGEGTTDKGEVPNGYNVSRLNKREFSLRLESAAPSQTSVYFCASSSLARETQYFGPGTRLLVL
For B1, the binding result in assay [1] is recorded as “recognises”.

B2: TCR of SEQ ID NOs 385 and 386 (TCR, V domains shown)
Valpha: KQEVTQIPAALSVPEGENLVLNCSFTDSAIYNLQWFRQDPGKGLTSLLLIQSSQREQTSGRLNASLDKSSGRSTLYIAASQPGDSATYLCAVLTDSWGKLQFGAGTQVVVTP
Vbeta: NAGVTQTPKFRVLKTGQSMTLLCAQDMNHEYMYWYRQDPGMGLRLIHYSVGEGTTAKGEVPDGYNVSRLKKQNFLLGLESAAPSQTSVYFCASSYWGGNTEAFFGQGTRLTVV
Regarding B2, in assay [2], the binding result was “recognises”.

B3: TCR of SEQ ID NOs 373 and 374 (TCR, V domains shown)
Valpha: KQEVTQIPAALSVPEGENLVLNCSFTDSAIYNLQWFRQDPGKGLTSLLLIQSSQREQTSGRLNASLDKSSGRSTLYIAASQPGDSATYLCAANDPMDSSYKLIFGSGTRLLVRP
Vbeta: NAGVTQTPKFRVLKTGQSMTLLCAQDMNHEYMYWYRQDPGMGLRLIHYSVGEGTTAKGEVPDGYNVSRLKKQNFLLGLESAAPSQTSVYFCASSPLDGWNYGYTFGSGTRLTVV
Take B3: in assay [3], the binding result was “recognises”.

B4: TCR of SEQ ID NOs 389 and 390 (TCR, V domains shown)
Valpha: QKEVEQNSGPLSVPEGAIASLNCTYSDRGSQSFFWYRQYSGKSPELIMSIYSNGDKEDGRFTAQLNKASQYVSLLIRDSQPSDSATYLCAVWGKSGGYNKLIFGAGTRLAVHP
Vbeta: NAGVTQTPKFGILKTGQSMTLQCAQDMNHEYMSWYRQDPGMGLRLIHYSVGAGITDKGEVPNGYNVSRSTTEDFPLRLELAAPSQTSVYFCASSYSSPLRQDNSPLHFGNGTRLTVT
On to B4, for which, in assay [4], the binding result was “recognises”.

B5: TCR of SEQ ID NOs 361 and 362 (TCR, V domains shown)
Valpha: KQEVTQIPAALSVPEGENLVLNCSFTDSAIYNLQWFRQDPGKGLTSLLLIQSSQREQTSGRLNASLDKSSGRSTLYIAASQPGDSATYLCAVDTGRRALTFGSGTRLQVQP
Vbeta: NAGVTQTPKFQVLKTGQSMTLQCAQDMNHEYMYWYRQDPGMGLRLIHYSVGEGTTAKGEVPDGYNVSRLKKQNFLLGLESAAPSQTSVYFCASRDQINEKLFFGSGTQLSVL
Take B5: in assay [5], the binding result is recorded as “recognises”.

B6: TCR of SEQ ID NOs 363 and 364 (TCR, V domains shown)
Valpha: KQEVTQIPAALSVPEGENLVLNCSFTDSAIYNLQWFRQDPGKGLTSLLLIQSSQREQTSGRLNASLDKSSGRSTLYIAASQPGDSATYLCAVNLGAQKLVFGQGTRLTINP
Vbeta: NAGVTQTPKFRILKIGQSMTLQCTQDMNHNYMYWYRQDPGMGLKLIYYSVGAGITDKGEVPNGYNVSRSTTEDFPLRLELAAPSQTSVYFCASSSFDRDEAFFGQGTKLTVV
Turning to B6, the binding result in assay [5] is “recognises”.

B7: TCR of SEQ ID NOs 381 and 382 (TCR, V domains shown)
Valpha: KQEVTQIPAALSVPEGENLVLNCSFTDSAIYNLQWFRQDPGKGLTSLLLIQSSQREQTSGRLNASLDKSSGRSTLYIAASQPGDSATYLCAVRPADSWGKLQFGAGTQVVVTP
Vbeta: NAGVTQTPKFRILKIGQSMTLQCTQDMNHNYMYWYRQDPGMGLKLIYYSVGAGITDKGEVPNGYNVSRSTTEDFPLRLELAAPSQTSVYFCASSYSLGELFFGEGSRLTVL
For B7, the binding result in assay [6] is listed as “recognises”.

B8: TCR of SEQ ID NOs 383 and 384 (TCR, V domains shown)
Valpha: KQEVTQIPAALSVPEGENLVLNCSFTDSAIYNLQWFRQDPGKGLTSLLLIQSSQREQTSGRLNASLDKSSGRSTLYIAASQPGDSATYLCAVLTTDSWGKLQFGAGTQVVVTP
Vbeta: NAGVTQTPKFRILKIGQSMTLQCTQDMNHNSMYWYRQDPGMGLRLIYYSASEGTTDKGEVPNGYNVSRLNKREFSLRLESAAPSQTSVYFCASSELIGTVDYSNQPQHFGDGTRLSIL
Regarding B8, the binding result in assay [2] is “recognises”.

B9: TCR of SEQ ID NOs 359 and 360 (TCR, V domains shown)
Valpha: KQEVTQIPAALSVPEGENLVLNCSFTDSAIYNLQWFRQDPGKGLTSLLLIQSSQREQTSGRLNASLDKSSGRSTLYIAASQPGDSATYLCAVRPTRGDSWGKLQFGAGTQVVVTP
Vbeta: NAGVTQTPKFQVLKTGQSMTLQCAQDMNHNSMYWYRQDPGMGLRLIYYSASEGTTDKGEVPNGYNVSRLNKREFSLRLESAAPSQTSVYFCASSYSLLGNEAFFGQGTRLTVV
In the case of B9, in assay [5], the binding result was “recognises”.

B10: TCR of SEQ ID NOs 387 and 388 (TCR, V domains shown)
Valpha: KQEVTQIPAALSVPEGENLVLNCSFTDSAIYNLQWFRQDPGKGLTSLLLIQSSQREQTSGRLNASLDKSSGRSTLYIAASQPGDSATYLCAVSGDSWGKLQFGAGTQVVVTP
Vbeta: NAGVTQTPKFQVLKTGQSMTLQCAQDMNHNSMYWYRQDPGMGLRLIYYSASEGTTDKGEVPNGYNVSRLNKREFSLRLESAAPSQTSVYFCASSYWGPNTEAFFGQGTRLTVV
In the case of B10, in assay [2], the binding result is reported as “recognises”.

B11: TCR of SEQ ID NOs 377 and 378 (TCR, V domains shown)
Valpha: KQEVTQIPVALSVPEGENLVLNCSFTDSAIYNLQWFRQDPGKGLTSLLLIQSSQREQTSGRLNASLDKSSGRSTLYIAASQPGDSATYLCAVTDSWGKLQFGAGTQVVVTP
Vbeta: NAGVTQTPKFQVLKTGQSMTLQCAQDMNHNSMYWYRQDPGMGLRLIYYSASEGTTDKGEVPNGYNVSRLNKREFSLRLESAAPSQTSLYFCASSEGPADTYGYTFGSGTRLTVV
On to B11, for which the binding result in assay [6] was “recognises”.

B12: TCR of SEQ ID NOs 395 and 396 (TCR, V domains shown)
Valpha: KQEVTQIPAALSVPEGENLVLNCSFTDSAIYNLQWFRQDPGKGLTSLLLIQSSQREQTSGRLNASLDKSSGRSTLYIAASQPGDSATYLCAVLDSWGKLQFGAGTQVVVTP
Vbeta: NAGVTQTPKFRVLKTGQSMTLLCAQDMNHEYMYWYRQDPGMGLRLIHYSVGEGTTAKGEVPDGYNVSRLKKQNFLLGLESAAPSQTSVYFCASSGLLSPDTQYFGPGTRLKVL
For the molecule B12, the binding result in assay [7] is listed as “recognises”.

B13: TCR of SEQ ID NOs 365 and 366 (TCR, V domains shown)
Valpha: KQEVTQIPAALSVPEGENLVLNCSFTDSAIYNLQWFRQDPGKGLTSLLLIQSSQREQTSGRLNASLDKSSGRSTLYIAASQPGDSATYLCAVGGYNKLIFGAGTRLAVHP
Vbeta: NAGVTQTPKFQVLKTGQSMTLQCAQDMNHNSMYWYRQDPGMGLRLIYYSASEGTTDKGEVPNGYNVSRSTTEDFPLRLLSAAPSQTSVYFCASSYQGTGELFFGEGSRLTVL
As for B13, in assay [1], the binding result is reported as “recognises”.

B14: TCR of SEQ ID NOs 369 and 370 (TCR, V domains shown)
Valpha: KQEVTQIPAALSVPEGENLVLNCSFTDSAIYNLQWFRQDPGKGLTSLLLIQSSQREQTSGRLNASLDKSSGRSTLYIAASQPGDSATYLCAVGGYQKVTFGTGTKLQVIP
Vbeta: NAGVTQTPKFQVLKTGQSMTLQCAQDMNHNSMYWYRQDPGMGLRLIYYSASEGTTDKGEVPNGYNVSRSTTEDFPLRLLSAAPSQTSVYFCASSYQGGNEKLFFGSGTQLSVL
As to B14, the binding result in assay [1] is on record as “recognises”.

B15: TCR of SEQ ID NOs 375 and 376 (TCR, V domains shown)
Valpha: KQEVTQIPAALSVPEGENLVLNCSFTDSAIYNLQWFRQDPGKGLTSLLLIQSSQREQTSGRLNASLDKSSGRSTLYIAASQPGDSATYLCAVRHDYKLSFGAGTTVTVRA
Vbeta: NAGVTQTPKFQVLKTGQSMTLQCAQDMNHEYMSWYRQDPGMGLRLIHYSVGAGITDQGEVPNGYNVSRSTTEDFPLRLLSAAPSQTSVYFCASSRIGQRASFFGSGTRLTVV
Take B15: the binding result in assay [3] is reported as “recognises”.

B16: TCR of SEQ ID NOs 397 and 398 (TCR, V domains shown)
Valpha: KQEVTQIPAALSVPEGENLVLNCSFTDSAIYNLQWFRQDPGKGLTSLLLIQSSQREQTSGRLNASLDKSSGRSTLYIAASQPGDSATYLCAAGGYQKVTFGTGTKLQVIP
Vbeta: NAGVTQTPKFRILKIGQSMTLQCTQDMNHNYMYWYRQDPGMGLKLIYYSVGAGITDKGEVPNGYNVSRSTTEDFPLRLLSAAPSQTSVYFCASRRPTGELFFGEGSRLTVL
For B16, the binding result in assay [7] was “recognises”.

B17: TCR of SEQ ID NOs 379 and 380 (TCR, V domains shown)
Valpha: KQEVTQIPAALSVPEGENLVLNCSFTDSAIYNLQWFRQDPGKGLTSLLLIQSSQREQTSGRLNASLDKSSGRSTLYIAASQPGDSATYLCAVSPFDLYGQNFVFGPGTRLSVLP
Vbeta: NAGVTQTPKFQVLKTGQSMTLQCAQDMNHNSMYWYRQDPGMGLRLIYYSASEGTTDKGEVPNGYNVSRLNKREFSLRLESAAPSQTSVYFCASRGTLFDPQHFGDGTRLSIL
In the case of B17, the binding result in assay [6] was “recognises”.

B18: TCR of SEQ ID NOs 393 and 394 (TCR, V domains shown)
Valpha: AQSVTQLDSHVSVSEGTPVLLRCNYSSSVPPYLFWYVQYPNQGLQLLLKYTTGATLVKGINGFEAEFKKSETSFHLTKPSAHMSDAAEYFCAVSEDGNKLVFGAGTILRVKS
Vbeta: AAGVIQSPRHLIKEKRETATLKCYPIPRHDTVYWYQQGPGQDPQFLISFYEKMQSDKGSIPDRFSAQQFSDYHSELNMSSLELGDSALYFCASRLTGVSGEGDYGYTFGSGTRLTVV
B18: the binding result in assay [4] was “recognises”.

B19: TCR of SEQ ID NOs 371 and 372 (TCR, V domains shown)
Valpha: KQEVTQIPAALSVPEGENLVLNCSFTDSAIYNLQWFRQDPGKGLTSLLLIQSSQREQTSGRLNASLDKSSGRSTLYIAASQPGDSATYLCAVRHDYQLSFGAGTTVTVRA
Vbeta: NAGVTQTPKFQVLKTGQSMTLQCAQDMNHEYMSWYRQDPGMGLRLIHYSVGAGITDQGEVPNGYNVSRSTTEDFPLRLLSAAPSQTSVYFCASSRIGQRASFFGSGTRLTVV
With B19, in assay [3], the binding result was “recognises”.

B20: TCR of SEQ ID NOs 391 and 392 (TCR, V domains shown)
Valpha: QKEVEQNSGPLSVPEGAIASLNCTYSDRGSQSFFWYRQYSGKSPELIMSIYSNGDKEDGRFTAQLNKASQYVSLLIRDSQPSDSATYLCAVNSPGNARLMFGDGTQLVVKP
Vbeta: NAGVTQTPKFQVLKTGQSMTLQCAQDMNHEYMSWYRQDPGMGLRLIHYSVGAGITDQGEVPNGYNVSRSTTEDFPLRLLSAAPSQTSVYFCASSYWRGGLEQYFGPGTRLTVT
For the molecule B20, the binding result in assay [4] was “recognises”.
